From article PMC3918043

B1: wtANF-Sp-s3 (dsDNA)
DNA 1: TATTGCCTCTCCTCCCGCCCTTATTTGGAG
DNA 2: CTCCAAATAAGGGCGGGAGGAGAGGCAATA
B2: wtANF-Sp-s4 (dsDNA)
DNA 1: GACATCTAGGGTGGGGGTGGGCTGTCTGG
DNA 2: CCAGACAGCCCACCCCCACCCTAGATGTC
B3: wtANF-Sp-s2 (dsDNA)
DNA 1: TGAGGGTCTGGGGGAGGGAGGGTTACTGGAG
DNA 2: CTCCAGTAACCCTCCCTCCCCCAGACCCTCA
B4: wtANF-Sp-s1 (dsDNA)
DNA 1: GTGACAGAATGGGGAGGGTTCCAGCTCT
DNA 2: AGAGCTGGAACCCTCCCCATTCTGTCAC

Target: Sp1 (human, UniProt P08047 1-785)
Assay: EMSA

Sequence of Sp1 (P08047 whole entry): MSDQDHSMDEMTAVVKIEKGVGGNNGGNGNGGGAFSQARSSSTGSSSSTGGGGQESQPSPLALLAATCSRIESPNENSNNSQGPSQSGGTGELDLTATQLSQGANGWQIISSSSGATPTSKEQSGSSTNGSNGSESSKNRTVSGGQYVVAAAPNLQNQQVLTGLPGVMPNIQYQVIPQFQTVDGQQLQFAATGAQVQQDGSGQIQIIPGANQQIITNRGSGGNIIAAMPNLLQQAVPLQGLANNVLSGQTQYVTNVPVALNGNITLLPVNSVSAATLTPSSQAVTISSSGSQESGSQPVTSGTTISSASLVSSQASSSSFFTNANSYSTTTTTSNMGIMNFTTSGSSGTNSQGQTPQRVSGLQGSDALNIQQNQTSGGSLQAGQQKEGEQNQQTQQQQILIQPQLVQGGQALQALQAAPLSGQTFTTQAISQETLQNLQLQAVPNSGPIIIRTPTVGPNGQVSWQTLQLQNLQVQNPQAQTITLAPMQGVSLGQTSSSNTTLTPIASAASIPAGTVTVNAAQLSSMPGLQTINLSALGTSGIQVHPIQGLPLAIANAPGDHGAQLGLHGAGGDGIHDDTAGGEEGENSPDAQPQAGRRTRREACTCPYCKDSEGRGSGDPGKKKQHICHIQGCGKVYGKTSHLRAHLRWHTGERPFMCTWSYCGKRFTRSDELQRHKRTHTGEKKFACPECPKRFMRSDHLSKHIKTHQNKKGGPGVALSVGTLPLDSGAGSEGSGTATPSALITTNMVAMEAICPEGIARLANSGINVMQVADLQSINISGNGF

Binding result, binds:
B1, B2, B3, B4
